Test results reported in doi:10.1101/2023.04.09.536162v1.

Substrate: C[C@@H](O)[C@H](N)C(=O)O
Experiment: purified protein
Conditions: natural substrate

B1: NmLTA (Neptunomonas marina) (protein)
chain: MASNDSCIEDTVSFTSDNIAAAAPEIVQAMAQACQGNAQPYGGDALTQNVEAQLKAIFECDLQLFLVPTGSAANAISLAALTPPWGAILCHQESHINNDECGAPEFFTAGAKLIAVAGTHGKLDPQALTQAARNKRGDVHSVEPTTVSITQATEVGSIYALDELNEIGQICRNEGLKLHMDGARFANALSALGCTPAEMTWKAGVDVLSFGATKNGSLCAEAIILFDKSYAQEIAFRRKRGGHLLSKMRFLSAQMHAYLADDLWLTNARHANLMAARLAAGLSALSRVSLIAPTESNIIFCRMPTKMIAALQQQGFQFYHDRWGDGIVRLVTSFATTQAQVDTFIAAAAQLNQNTD
Km: 12.3 mM | kcat: 805.7 s⁻¹
